In US20250382359A1 (BYOMASS, published 2025):

T1: Human BMP9 (human, UniProt Q9UK05 320-429)
T1 sequence (looked up): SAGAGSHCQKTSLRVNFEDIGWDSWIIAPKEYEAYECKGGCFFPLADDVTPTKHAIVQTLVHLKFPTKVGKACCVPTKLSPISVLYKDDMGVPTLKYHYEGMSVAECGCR

T2: Human BMP10 (human, UniProt O95393 317-424)
T2 sequence (looked up): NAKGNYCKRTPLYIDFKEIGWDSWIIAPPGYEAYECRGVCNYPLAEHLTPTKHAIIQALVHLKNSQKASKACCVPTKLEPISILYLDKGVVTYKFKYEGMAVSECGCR

T3: Human Activin B (human, UniProt P09529 293-407)
T3 sequence (looked up): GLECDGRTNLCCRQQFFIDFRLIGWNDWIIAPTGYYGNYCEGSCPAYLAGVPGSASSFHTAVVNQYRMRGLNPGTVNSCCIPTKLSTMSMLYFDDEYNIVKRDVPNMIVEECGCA

T4: GDF10 (UniProt P55107 369-478)
T4 sequence (looked up): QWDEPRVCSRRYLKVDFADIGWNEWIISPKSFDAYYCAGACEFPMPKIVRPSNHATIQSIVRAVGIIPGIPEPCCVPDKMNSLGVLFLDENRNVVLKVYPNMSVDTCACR

T5: Human Activin A Fc (human, UniProt P08476 311-426)
T5 construct: not shown: Fc part
T5 sequence (looked up): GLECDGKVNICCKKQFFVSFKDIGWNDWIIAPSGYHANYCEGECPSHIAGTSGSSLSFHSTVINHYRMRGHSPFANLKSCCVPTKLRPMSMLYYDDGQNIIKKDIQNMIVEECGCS

T6: Human GDF15 Fc (human, UniProt Q99988 195-308, limits assumed, biotinylated (EZ-Link Sulfo-NHS-Biotinylation Kit) in the SPR assay)
T6 construct: also called human GDF15-Fc fusion; biotinylated Human GDF15 Fc; not shown: Fc part
T6 sequence: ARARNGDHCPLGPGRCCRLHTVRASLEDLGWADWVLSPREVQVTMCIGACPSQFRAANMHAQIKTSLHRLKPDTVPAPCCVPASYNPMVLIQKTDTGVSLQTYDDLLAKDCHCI

T7: GDF15 (ligand used in the GFRAL/RET cell assays) (UniProt Q99988 197-308, limits assumed)
T7 sequence (looked up): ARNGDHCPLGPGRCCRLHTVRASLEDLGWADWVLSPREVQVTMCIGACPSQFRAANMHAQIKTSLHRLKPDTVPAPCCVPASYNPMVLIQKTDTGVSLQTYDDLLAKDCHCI

T8: GDNF (UniProt P39905 78-211)
T8 sequence (looked up): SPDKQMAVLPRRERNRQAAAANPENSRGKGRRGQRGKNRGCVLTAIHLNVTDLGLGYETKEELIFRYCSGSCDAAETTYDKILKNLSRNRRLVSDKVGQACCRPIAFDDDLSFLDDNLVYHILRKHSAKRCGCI

T9: Mouse GDF15 Fc (mouse, UniProt Q9Z0J7 189-303, limits assumed)
T9 construct: also called mouse GDF15-Fc fusion; not shown: Fc part
T9 sequence (looked up): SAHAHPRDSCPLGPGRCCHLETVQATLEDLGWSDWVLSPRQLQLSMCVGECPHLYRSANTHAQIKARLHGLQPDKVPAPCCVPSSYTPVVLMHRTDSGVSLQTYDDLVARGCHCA

T10: Cyno GDF15 Fc (cyno, UniProt G7PWZ3 193-308, limits assumed)
T10 construct: also called cyno GDF15-Fc fusion; not shown: Fc part
T10 sequence: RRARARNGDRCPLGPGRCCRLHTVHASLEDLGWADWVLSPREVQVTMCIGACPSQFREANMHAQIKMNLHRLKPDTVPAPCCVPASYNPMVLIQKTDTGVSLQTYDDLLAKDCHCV

B1: GDF15 antibody agent Clone I, IgG (antibody, V domains shown)
VH: QVQLVQSGAEVKKPGASVKVSCKASGYTFTDEGINWVRQAPGQGLEWMGWITAYSGDTVYAQKLQGRVTMTTDTSTSTAYMELRSLRSDDTAVYYCARGPGQYADVDVWGQGTMVTVSS
VL: DIQMTQSPSSVSASVGDRVTITCRASQGISSWLAWYQQKPGKAPKLLIYAASSLQSGVPSRFSGSGSGTDFTLTISSLQPEDFATYYCQQANSFPITFGGGTKVEIKR
B2: GDF15 antibody agent Clone J, IgG (antibody, V domains shown)
VH: QVQLVQSGAEVKKPGASVKVSCKASGYTFTSYGINWVRQAPGQGLEWMGWIDAYSGSTNYAQKLQGRVTMTTDTSTSTAYMELRSLRSDDTAVYYCARGPGQYADVDVWGQGTMVTVSS
VL: DIQMTQSPSSVSASVGDRVTITCRASQGISSWLAWYQQKPGKAPKLLIYAASSLQSGVPSRFSGSGSGTDFTLTISSLQPEDFATYYCQQANSFPITFGGGTKVEIKR
B3: GDF15 antibody agent Clone F, IgG (antibody, V domains shown)
VH: QVQLVQSGAEVKKPGSSVKVSCKASGGTFGGYAISWVRQAPGQGLEWMGGIIPPYATANYAQKFQGRVTITADESTSTAYMELSSLRSEDTAVYYCARGVGTTHLDVWGQGTMVTVSS
VL: not shown
B4: GDF15 antibody agent Clone F, Fab (Fab, V domains shown)
VH: QVQLVQSGAEVKKPGSSVKVSCKASGGTFGGYAISWVRQAPGQGLEWMGGIIPPYATANYAQKFQGRVTITADESTSTAYMELSSLRSEDTAVYYCARGVGTTHLDVWGQGTMVTVSS
VL: not shown
notes: Fab; CH1 and CL of the Fab not specified; also called Fab of Clone F
B5: GDF15 antibody agent Clone G, Fab (Fab, V domains shown)
VH: QVQLVQSGAEVKKPGSSVKVSCKASGGTFQGYAISWARQAPGQGLEWMGGIIPPYATANYAQKFQGRVTITADESTSTAYMELSSLRSEDTAVYYCARGVGELHLDVWGQGTMVTVSS
VL: not shown
notes: Fab; CH1 and CL of the Fab not specified; also called Fab of Clone G
B6: GDF15 antibody agent Clone N, Fab (Fab, V domains shown)
VH: QVQLVQSGAEVKKPGASVKVSCKASGYTFTDYGIFWVRQAPGQGLEWMGWITAYSGDTHYAQKLQGRVTMTTDTSTSTAYMELRSLRSDDTAVYYCVRDTQYGGSPYWGQGTLVTVSS
VL: EIVMTQSPATLSVSPGERATLSCRASQSVSSNLAWYQQKPGQAPRLLIYGASTRATGIPARFSGSGSGTEFTLTISSLQSEDFAVYYCQQYNNWPITFGGGTKVEIK
notes: Fab; CH1 and CL of the Fab not specified; also called Fab of Clone N

Columns and labels:
[1] = target: T1, Human BMP9; assay: BLI Octet; IgG on sensor
[2] = target: T11, GDF11 (UniProt O95390 299-407); assay: BLI Octet; IgG on sensor
T11 construct: Also used as ligand in the Activin 2B receptor/SMAD reporter assay
T11 sequence (O95390 299-407 limits assumed): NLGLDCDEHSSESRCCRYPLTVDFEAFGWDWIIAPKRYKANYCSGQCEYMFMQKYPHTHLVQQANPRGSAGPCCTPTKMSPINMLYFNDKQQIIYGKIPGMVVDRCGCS

[3] = target: T2, Human BMP10; assay: BLI Octet; IgG on sensor
[4] = target: T3, Human Activin B; assay: BLI Octet; IgG on sensor
[5] = target: GDF8 (UniProt O14793 267-375); assay: BLI Octet; IgG on sensor
[6] = target: T4, GDF10; assay: BLI Octet; IgG on sensor
[7] = target: T5, Human Activin A Fc; assay: BLI Octet; IgG on sensor
[8] = target: T6, Human GDF15 Fc; assay: BLI Octet; IgG on sensor, 100 nM antigen (avid)
Method: Briefly, ForteBio affinity measurements were performed by loading IgGs on-line onto AHC sensors. Sensors were equilibrated off-line in assay buffer for 30 min and then monitored on-line for 60 seconds for baseline establishment. Sensors with loaded IgGs were exposed to 100 nM antigen for 3 minutes, and afterwards were transferred to assay buffer for 3 min for off-rate measurement. All kinetics were analyzed using the 1:1 binding model.

[9] = target: T7, GDF15 (ligand used in the GFRAL/RET …); assay: cell-based or functional assay
[10] = target: T8, GDNF; assay: BLI Octet; IgG on sensor
[11] = target: T9, Mouse GDF15 Fc; assay: BLI Octet; antigen on sensor, 100 nM Fab (monovalent)
[12] = target: T10, Cyno GDF15 Fc; assay: as above
[13] = target: T6, Human GDF15 Fc; assay: SPR Biacore 8K; biotinylated antigen captured, Fab analyte
Method: Kinetic analysis was conducted at 25° C. in HBS-EP+running buffer (10 mM HEPES pH 7.4, 150 mM NaCl, 3 mM EDTA, 0.05% Surfactant P20) using a Biacore 8K optical biosensor (Cytiva, Marlborough, MA). The sample compartment was maintained at 10° C. for the duration of the experiment. The Biacore 8K can analyze up to 8 separate interactions in a single cycle.
Each experiment cycle began with an injection (300 s at 2 μL/min) overflow cells 1 and 2 of a 1:100 solution of biotin CAPture reagent (Cytiva) in running buffer. This was followed by an injection (45 s at 10.0 μL/min) of biotinylated human GDF15 (5 nM) overflow cell 2. […] The dissociation of the antibodies were monitored for 3420 s. Finally, an injection (120 s at 10 μL/min) of regeneration solution (6 M Guanidine-HCl in 0.25 M NaOH) overflow cells 1 and 2 prepared the sensor surface for another cycle. Several blank buffer samples were injected (300 s at 30 μL/min) overflow cells 1 and 2 throughout the duration of the experiment and used for reference surface subtraction—each were monitored for the same amount of dissociation time (3420 s) and regenerated under the same conditions as those for the Fab sample injections.

Binder | binding result [1] | binding result [2] | binding result [3] | binding result [4] | binding result [5] | binding result [6] | binding result [7] | Kd [8] | GDF15-GFRAL RET pERK IC50 (pM) [9] | GDF15-GFRAL-RET Luciferase IC50 (pM) [9] | binding result [10] | Kd [11] | Kd [12] | GDF15 GFRAL RET pERK Fab IC50 pM [9] | Kd [13] | koff [13] | kon [13]
B1 | no binding (tested: 100 nM) | no binding (tested: 100 nM) | no binding (tested: 100 nM) | no binding (tested: 100 nM) | no binding (tested: 100 nM) | no binding (tested: 100 nM) | no binding (tested: 100 nM) | 0.262 nM | 34.5 pM | 79.3 pM |  |  |  |  |  |  | 
B2 | no binding (tested: 100 nM) | no binding (tested: 100 nM) | no binding (tested: 100 nM) | no binding (tested: 100 nM) | no binding (tested: 100 nM) | no binding (tested: 100 nM) | no binding (tested: 100 nM) | 0.276 nM | 30.3 pM | 110 pM |  |  |  |  |  |  | 
B3 |  | no binding (tested: 100 nM) | no binding (tested: 100 nM) | no binding (tested: 100 nM) | no binding (tested: 100 nM) |  | no binding (tested: 100 nM) | 0.244 nM | 34.9 pM | 91.3 pM | no binding (tested: 100 nM) |  |  |  |  |  | 
B4 |  |  |  |  |  |  |  |  |  |  |  | 26.1 nM | 0.553 nM | 11.2 pM |  |  | 
B5 |  |  |  |  |  |  |  |  |  |  |  |  | 0.474 nM | 33.2 pM |  |  | 
B6 |  |  |  |  |  |  |  |  |  |  |  | 2.56 nM |  | 322 pM | 0.545 nM | 0.00318 s⁻¹ | 5.84e+06 M⁻¹ s⁻¹
